Reference: the Human Domainome abundance scans (Beltran et al. 2025)
± gives the uncertainty stated by the source.

B1: Gamma-crystallin S, residues 96 to 176; numbered along this chain, P22914 (parent)
chain: IQIFEKGDFSGQMYETTEDCPSIMEQFHMREIHSCKVLEGVWIFYELPNYRGRQYLLDKKEYRKPIDWGAASPAVQSFRRI

Variants of: B1
Test: abundance fitness (aPCA) (normalised: wild type 0, dead -1); higher = more abundant; growth selection in yeast, the domain comes from the species named
Conditions: Homo sapiens

Variant | abundance fitness
IQIFEKGDFSGQMYETTEDCPSIMEQFHMREIHSCKVLEGVWIFYELPNYNGRQYLLDKKEYRKPIDWGAASPAVQSFRRI [R51N] | -0.264 ± 0.19
IQIFEKGDFSGQMYETTEDCPSIMEQFHMREIHSCKVLEGVWIFYELPNYPGRQYLLDKKEYRKPIDWGAASPAVQSFRRI [R51P] | -1.03 ± 0.17
IQIFEKGDFSGQMYETTEDCPSIMEQFHMREIHSCKVLEGVWIFYELPNYQGRQYLLDKKEYRKPIDWGAASPAVQSFRRI [R51Q] | -0.035 ± 0.066
IQIFEKGDFSGQMYETTEDCPSIMEQFHMREIHSCKVLEGVWIFYELPNYSGRQYLLDKKEYRKPIDWGAASPAVQSFRRI [R51S] | 0.044 ± 0.056
IQIFEKGDFSGQMYETTEDCPSIMEQFHMREIHSCKVLEGVWIFYELPNYTGRQYLLDKKEYRKPIDWGAASPAVQSFRRI [R51T] | 0.1 ± 0.088
IQIFEKGDFSGQMYETTEDCPSIMEQFHMREIHSCKVLEGVWIFYELPNYVGRQYLLDKKEYRKPIDWGAASPAVQSFRRI [R51V] | -0.026 ± 0.048
IQIFEKGDFSGQMYETTEDCPSIMEQFHMREIHSCKVLEGVWIFYELPNYWGRQYLLDKKEYRKPIDWGAASPAVQSFRRI [R51W] | -0.138 ± 0.065
IQIFEKGDFSGQMYETTEDCPSIMEQFHMREIHSCKVLEGVWIFYELPNYYGRQYLLDKKEYRKPIDWGAASPAVQSFRRI [R51Y] | -0.166 ± 0.12
IQIFEKGDFSGQMYETTEDCPSIMEQFHMREIHSCKVLEGVWIFYELPNYRARQYLLDKKEYRKPIDWGAASPAVQSFRRI [G52A] | -0.741 ± 0.069
IQIFEKGDFSGQMYETTEDCPSIMEQFHMREIHSCKVLEGVWIFYELPNYRCRQYLLDKKEYRKPIDWGAASPAVQSFRRI [G52C] | -0.631 ± 0.17
IQIFEKGDFSGQMYETTEDCPSIMEQFHMREIHSCKVLEGVWIFYELPNYRDRQYLLDKKEYRKPIDWGAASPAVQSFRRI [G52D] | -0.788 ± 0.12
IQIFEKGDFSGQMYETTEDCPSIMEQFHMREIHSCKVLEGVWIFYELPNYRERQYLLDKKEYRKPIDWGAASPAVQSFRRI [G52E] | -0.949 ± 0.2
IQIFEKGDFSGQMYETTEDCPSIMEQFHMREIHSCKVLEGVWIFYELPNYRFRQYLLDKKEYRKPIDWGAASPAVQSFRRI [G52F] | -0.246 ± 0.36
IQIFEKGDFSGQMYETTEDCPSIMEQFHMREIHSCKVLEGVWIFYELPNYRKRQYLLDKKEYRKPIDWGAASPAVQSFRRI [G52K] | -0.438 ± 0.12
IQIFEKGDFSGQMYETTEDCPSIMEQFHMREIHSCKVLEGVWIFYELPNYRLRQYLLDKKEYRKPIDWGAASPAVQSFRRI [G52L] | -0.805 ± 0.089
IQIFEKGDFSGQMYETTEDCPSIMEQFHMREIHSCKVLEGVWIFYELPNYRMRQYLLDKKEYRKPIDWGAASPAVQSFRRI [G52M] | -0.912 ± 0.13
IQIFEKGDFSGQMYETTEDCPSIMEQFHMREIHSCKVLEGVWIFYELPNYRPRQYLLDKKEYRKPIDWGAASPAVQSFRRI [G52P] | -0.89 ± 0.24

Variant | abundance fitness
IQIFEKGDFSGQMYETTEDCPSIMEQFHMREIHSCKVLEGVWIFYELPNYRQRQYLLDKKEYRKPIDWGAASPAVQSFRRI [G52Q] | -1 ± 0.13
IQIFEKGDFSGQMYETTEDCPSIMEQFHMREIHSCKVLEGVWIFYELPNYRRRQYLLDKKEYRKPIDWGAASPAVQSFRRI [G52R] | -0.766 ± 0.084
IQIFEKGDFSGQMYETTEDCPSIMEQFHMREIHSCKVLEGVWIFYELPNYRSRQYLLDKKEYRKPIDWGAASPAVQSFRRI [G52S] | -0.457 ± 0.068
IQIFEKGDFSGQMYETTEDCPSIMEQFHMREIHSCKVLEGVWIFYELPNYRTRQYLLDKKEYRKPIDWGAASPAVQSFRRI [G52T] | -0.95 ± 0.19
IQIFEKGDFSGQMYETTEDCPSIMEQFHMREIHSCKVLEGVWIFYELPNYRVRQYLLDKKEYRKPIDWGAASPAVQSFRRI [G52V] | -1.05 ± 0.12
IQIFEKGDFSGQMYETTEDCPSIMEQFHMREIHSCKVLEGVWIFYELPNYRWRQYLLDKKEYRKPIDWGAASPAVQSFRRI [G52W] | -1.01 ± 0.17
IQIFEKGDFSGQMYETTEDCPSIMEQFHMREIHSCKVLEGVWIFYELPNYRYRQYLLDKKEYRKPIDWGAASPAVQSFRRI [G52Y] | -0.95 ± 0.37
IQIFEKGDFSGQMYETTEDCPSIMEQFHMREIHSCKVLEGVWIFYELPNYRGAQYLLDKKEYRKPIDWGAASPAVQSFRRI [R53A] | -0.039 ± 0.045
IQIFEKGDFSGQMYETTEDCPSIMEQFHMREIHSCKVLEGVWIFYELPNYRGCQYLLDKKEYRKPIDWGAASPAVQSFRRI [R53C] | -0.064 ± 0.082
IQIFEKGDFSGQMYETTEDCPSIMEQFHMREIHSCKVLEGVWIFYELPNYRGDQYLLDKKEYRKPIDWGAASPAVQSFRRI [R53D] | 0.048 ± 0.082
IQIFEKGDFSGQMYETTEDCPSIMEQFHMREIHSCKVLEGVWIFYELPNYRGEQYLLDKKEYRKPIDWGAASPAVQSFRRI [R53E] | 0.036 ± 0.06
IQIFEKGDFSGQMYETTEDCPSIMEQFHMREIHSCKVLEGVWIFYELPNYRGFQYLLDKKEYRKPIDWGAASPAVQSFRRI [R53F] | -0.055 ± 0.072
IQIFEKGDFSGQMYETTEDCPSIMEQFHMREIHSCKVLEGVWIFYELPNYRGGQYLLDKKEYRKPIDWGAASPAVQSFRRI [R53G] | -0.039 ± 0.03
IQIFEKGDFSGQMYETTEDCPSIMEQFHMREIHSCKVLEGVWIFYELPNYRGHQYLLDKKEYRKPIDWGAASPAVQSFRRI [R53H] | -0.036 ± 0.1
IQIFEKGDFSGQMYETTEDCPSIMEQFHMREIHSCKVLEGVWIFYELPNYRGIQYLLDKKEYRKPIDWGAASPAVQSFRRI [R53I] | -0.163 ± 0.1
IQIFEKGDFSGQMYETTEDCPSIMEQFHMREIHSCKVLEGVWIFYELPNYRGKQYLLDKKEYRKPIDWGAASPAVQSFRRI [R53K] | 0.005 ± 0.076
IQIFEKGDFSGQMYETTEDCPSIMEQFHMREIHSCKVLEGVWIFYELPNYRGLQYLLDKKEYRKPIDWGAASPAVQSFRRI [R53L] | -0.059 ± 0.04
